Assay results published in paper PMC8546555, “Colicin-Mediated Transport of DNA through the Iron Transporter FepA” (mBio, 2021).

Target: T1, FepA overexpressed from pBAD/Myc-HisB (E. coli, UniProt P05825 23-746)
T1 construct: FepA, outer membrane ferric enterobactin transporter of E. coli; source: E. coli BW25113 ΔFepA (JW5086-3) or BL21(DE3), pBAD/Myc-HisB, overexpressed; on live cells, or in a detergent-extracted OM protein fraction
T1 sequence: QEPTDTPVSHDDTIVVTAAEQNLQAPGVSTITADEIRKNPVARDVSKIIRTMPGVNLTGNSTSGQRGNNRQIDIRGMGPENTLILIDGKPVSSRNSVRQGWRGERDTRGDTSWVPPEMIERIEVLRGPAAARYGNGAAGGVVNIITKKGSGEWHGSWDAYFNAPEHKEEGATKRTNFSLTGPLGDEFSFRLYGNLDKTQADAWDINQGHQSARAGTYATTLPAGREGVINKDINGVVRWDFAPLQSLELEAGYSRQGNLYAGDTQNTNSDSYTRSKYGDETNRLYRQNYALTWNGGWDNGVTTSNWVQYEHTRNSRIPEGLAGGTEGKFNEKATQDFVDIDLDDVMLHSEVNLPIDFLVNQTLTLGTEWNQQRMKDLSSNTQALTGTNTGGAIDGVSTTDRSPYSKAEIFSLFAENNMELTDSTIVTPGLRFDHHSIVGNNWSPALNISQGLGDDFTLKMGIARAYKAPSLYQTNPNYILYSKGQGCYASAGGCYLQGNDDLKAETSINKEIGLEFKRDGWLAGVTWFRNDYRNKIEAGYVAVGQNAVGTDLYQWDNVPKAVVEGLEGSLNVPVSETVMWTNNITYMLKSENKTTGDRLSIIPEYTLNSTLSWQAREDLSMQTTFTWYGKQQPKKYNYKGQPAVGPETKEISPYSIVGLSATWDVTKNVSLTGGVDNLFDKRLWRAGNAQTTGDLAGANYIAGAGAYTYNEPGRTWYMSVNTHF
Assay: native MS; 60 mg ColB-RT added to a 5-liter culture of BW25113(ΔFepA) cells overexpressing FepA; complex detergent extracted, purified by nickel affinity and size exclusion chromatography; 100 mM ammonium acetate, 1% β-OG, pH 6.9
Settings: one partner purified

B1: ColB-RT (341 aa) (domain or fragment)
chain: MSDNEGSVPTEGIDYGDTMVVWPSTGRIPGGDVKPGGSSGLAPSMPPGWGDYSPQGIALVQSVLFPGIIRRIILDKELEEGDWSGWSVSVHSPWGNEKVSAARTVLENGLRGGLPEPSRPAAVSFARLEPASGNEQKIIRLMVTQQLEQVTDIPASQLPAAGNNVPVKYRLTDLMQNGTQYMAIIGGIPMTVPVVDAVPVPDRSRPGTNIKDVYSAPVSPNLPDLVLSVGQMNTPVRSNPEIQEDGVISETGNYVEAGYTMSSNNHDVIVRFPEGSGVSPLYISAVEILDSNSLSQRQEAENNAKDDFRVKKEQENDEKTVLTKTSEVIISVGDKVGEYLG
notes: not shown: His6, C-terminal, kept
stoichiometry N: 1
